# Laboratory results taken from patent US20230243822A1, “MOLECULAR DISEASE PROFILE AND USE THEREOF FOR MONITORING AND TREATING RHEUMATAOID ARTHRITIS” (JANSSEN BIOTECH, INC., priority 2020, published 2023).
# System: 4-analyte M-DP panel (CRP, CXCL10, CXCL13, SAA)
# Test: Pharmacodynamic M-DP score, 4-analyte panel CRP, CXCL10, CXCL13, SAA (SOMAscan), clinical studies in RA
# Type: in vivo, human
# Settings: 4-analyte; for M-DP score mean difference ± SD, Good vs. No / M-DP score mean ± SD, DAS28-CRP response group Good / M-DP score mean ± SD, DAS28-CRP response group Moderate / M-DP score mean ± SD, DAS28-CRP response group No: response at week 24
# Description: Serum samples and data from eight interventional clinical studies with seven different active treatments for RA or placebo treatment were obtained and analyzed: sirukumab (anti-IL-6) and placebo treatments in SIRROUND-M (NCT01689532; Takeuchi T, et al. Arthritis Res Ther. 2018 Mar. 7; 20(1): 42), SIRROUND-D (NCT01604343; Takeuchi T, et al. Ann Rheum Dis. 2017 Dec.; 76(12): 2001-2008), and SIRROUND-T (NCT01606761; Aletaha D, et al. Lancet. 2017 Mar. 25; 389(10075): 1206-1217); sirukumab and adalimumab (anti-TNF-alpha) treatments in SIRROUND-H (NCT02019472; Taylor PC, et al. Ann Rheum Dis. 2018 May; 77(5): 658-666); golimumab (anti-TNF-alpha) treatment in GO-FURTHER (NCT00973479; Weinblatt ME, et al. Ann Rheum Dis. 2013 March; 72(3): 381-9); guselkumab (anti-IL-23p19), ustekinumab (anti-IL-12/IL-23p40), and placebo treatments in CNTO1275ARA2001 (NCT01645280; Cox JD, et al. […]); JNJ-40346527 (colony-stimulating factor-1 inhibitor) and placebo treatments in 40346527ARA2001 (NCT01597739; Genovese MC, et al. J Rheumatol. 2015 October; 42(10): 1752-60). Plasma samples were obtained from the RA-MAP TACERA study (Cope AP, et al. Nat Rev Rheumatol. 2018 January; 14(1): 53-60) before (baseline) and 6-months after initiation of conventional synthetic disease-modifying anti-rheumatic drugs (csDMARDs). Details of treatment dose groups, concomitant methotrexate use, and previous experience with csDMARDs and biologics are reported in Table 1. The studies were conducted in accordance with the Declaration of Helsinki. The study protocols were reviewed and approved by an independent ethics committee or institutional review board for each study center. Written informed consent was obtained from all patients before study entry. Additional study details and patient characteristics are available in the referenced publications for each study. For SIRROUND-D and SIRROUND-T studies, sets of serum samples from demographically-matched healthy controls were obtained from commercial sources (BioIVT, Westbury, N.Y.).
# Serum samples from baseline (week 0) and the time points indicated in Table 1 were provided for quantification of 1189 serum analytes using the SomaScan v3.1 platform (SomaLogic, Boulder, Colo.; www.somalogic.com), with the exception of RA-MAP TACERA, for which plasma samples were analyzed for 1301 analytes using the SomaScan v3.2 platform. For some studies, a redacted dataset reporting data for a subset of the analytes was obtained. Relative fluorescence unit (RFU) data were sequentially normalized for hybridization controls (internal standards per samples), median signal across all samples (assumes same total protein concentration across sample set), and calibration controls (common sample standards across analysis plates). Samples failed quality control standards defined by Somalogic were excluded from analyses. The normalized RFU values were log2-transformed for subsequent analyses.
# Changes in analyte expression levels were calculated for individual samples as the log2 transform of the ratio of the analyte level at the indicated time point (visit level) over the analyte level at baseline (baseline level) for a given subject, i.e., log 2(visit level/baseline level). Changes in RA disease-associated analytes per sample were summarized using a pharmacodynamic (PD) molecular disease profile (M-DP) score, defined as the median value of the log 2(visit level/baseline level) values for analytes in the defined M-DP analyte set. […] PD M-DP scores in the log 2(visit level/baseline level) scale can be transformed to percent change from baseline, using the transformation: (2^M-DP score−1)×100%.
# In selecting the best minimal set of analytes that performs similarly to the full 14-analyte set, analyte sets that results in significant associations between DAS28-CRP EULAR good vs. no response with p<0.05 for each study were prioritized (Table 4). […]
# [1] = SIRROUND-D, score at week 4, sirukumab SC 50 mg q4w
# [2] = SIRROUND-D, score at week 4, sirukumab SC 100 mg q2w
# [3] = SIRROUND-D, score at week 24, sirukumab SC 50 mg q4w
# [4] = SIRROUND-D, score at week 24, sirukumab SC 100 mg q2w
# [5] = SIRROUND-H, score at week 4, sirukumab SC 50 mg q4w or adalimumab SC 40 mg q2w
# [6] = SIRROUND-M, score at week 4, sirukumab SC 50 mg q4w
# [7] = SIRROUND-M, score at week 4, sirukumab SC 100 mg q2w
# [8] = SIRROUND-T, score at week 4, sirukumab SC 50 mg q4w
# [9] = SIRROUND-T, score at week 4, sirukumab SC 100 mg q2w
# [10] = SIRROUND-T, score at week 24, sirukumab SC 50 mg q4w
# [11] = SIRROUND-T, score at week 24, sirukumab SC 100 mg q2w
molecule,measurement,setting,value
"Sirukumab (antibody, chains of the INN, looked up, V domains shown, a human anti-interleukin-6 (IL-6) monoclonal antibody) VH: EVQLVESGGGLVQPGGSLRLSCAASGFTFSPFAMSWVRQAPGKGLEWVAKISPGGSWTYYSDTVTGRFTISRDNAKNSLYLQMNSLRAEDTAVYYCARQLWGYYALDIWGQGTTVTVSS VL: EIVLTQSPATLSLSPGERATLSCSASISVSYMYWYQQKPGQAPRLLIYDMSNLASGIPARFSGSGSGTDFTLTISSLEPEDFAVYYCMQWSGYPYTFGGGTKVEIK","M-DP score mean ± SD, All treated",[1],−1.09 ± 0.80 log2 (fold/baseline)
same,"M-DP score mean difference ± SD, Good vs. No",[1],−0.47 ± 0.79 (0.0012) log2 (fold/baseline)
same,"M-DP score mean ± SD, DAS28-CRP response group Good",[1],−1.26 ± 0.78 log2 (fold/baseline)
same,"M-DP score mean ± SD, DAS28-CRP response group Moderate",[1],−1.05 ± 0.76 log2 (fold/baseline)
same,"M-DP score mean ± SD, DAS28-CRP response group No",[1],−0.79 ± 0.81 log2 (fold/baseline)
same,"M-DP score mean ± SD, All treated",[2],−1.21 ± 0.78 log2 (fold/baseline)
same,"M-DP score mean difference ± SD, Good vs. No",[2],−0.47 ± 0.76 (0.0041) log2 (fold/baseline)
same,"M-DP score mean ± SD, DAS28-CRP response group Good",[2],−1.39 ± 0.75 log2 (fold/baseline)
same,"M-DP score mean ± SD, DAS28-CRP response group Moderate",[2],−1.01 ± 0.75 log2 (fold/baseline)
same,"M-DP score mean ± SD, DAS28-CRP response group No",[2],−0.92 ± 0.81 log2 (fold/baseline)
same,"M-DP score mean ± SD, All treated",[3],−1.43 ± 0.82 log2 (fold/baseline)
same,"M-DP score mean ± SD, DAS28-CRP response group Good",[3],−1.50 ± 0.83 log2 (fold/baseline)
same,"M-DP score mean ± SD, DAS28-CRP response group Moderate",[3],−1.46 ± 0.57 log2 (fold/baseline)
same,"M-DP score mean ± SD, DAS28-CRP response group No",[3],0.27 ± 0.00 log2 (fold/baseline)
same,"M-DP score mean ± SD, All treated",[4],−1.79 ± 0.78 log2 (fold/baseline)
same,"M-DP score mean ± SD, DAS28-CRP response group Good",[4],−1.80 ± 0.80 log2 (fold/baseline)
same,"M-DP score mean ± SD, DAS28-CRP response group Moderate",[4],−1.84 ± 0.95 log2 (fold/baseline)
same,"M-DP score mean ± SD, DAS28-CRP response group No",[4],−1.59 ± 0.19 log2 (fold/baseline)
same,"M-DP score mean ± SD, All treated",[5],−0.88 ± 0.69 log2 (fold/baseline)
same,"M-DP score mean difference ± SD, Good vs. No",[5],−0.40 ± 0.59 (0.0549) log2 (fold/baseline)
same,"M-DP score mean ± SD, DAS28-CRP response group Good",[5],−0.92 ± 0.65 log2 (fold/baseline)
same,"M-DP score mean ± SD, DAS28-CRP response group Moderate",[5],−0.95 ± 0.74 log2 (fold/baseline)
same,"M-DP score mean ± SD, DAS28-CRP response group No",[5],−0.52 ± 0.41 log2 (fold/baseline)
same,"M-DP score mean ± SD, All treated",[6],−1.69 ± 0.76 log2 (fold/baseline)
same,"M-DP score mean difference ± SD, Good vs. No",[6],−0.96 ± 0.66 (0.0010) log2 (fold/baseline)
same,"M-DP score mean ± SD, DAS28-CRP response group Good",[6],−1.92 ± 0.63 log2 (fold/baseline)
same,"M-DP score mean ± SD, DAS28-CRP response group Moderate",[6],−1.34 ± 0.75 log2 (fold/baseline)
same,"M-DP score mean ± SD, DAS28-CRP response group No",[6],−0.96 ± 0.85 log2 (fold/baseline)
same,"M-DP score mean ± SD, All treated",[7],−1.87 ± 0.75 log2 (fold/baseline)
same,"M-DP score mean ± SD, DAS28-CRP response group Good",[7],−1.86 ± 0.69 log2 (fold/baseline)
same,"M-DP score mean ± SD, DAS28-CRP response group Moderate",[7],−1.99 ± 0.94 log2 (fold/baseline)
same,"M-DP score mean ± SD, DAS28-CRP response group No",[7],−1.21 ± 0.43 log2 (fold/baseline)
same,"M-DP score mean ± SD, All treated",[8],−1.02 ± 0.84 log2 (fold/baseline)
same,"M-DP score mean difference ± SD, Good vs. No",[8],−0.39 ± 0.73 (0.0126) log2 (fold/baseline)
same,"M-DP score mean ± SD, DAS28-CRP response group Good",[8],−0.91 ± 0.75 log2 (fold/baseline)
same,"M-DP score mean ± SD, DAS28-CRP response group Moderate",[8],−0.82 ± 0.79 log2 (fold/baseline)
same,"M-DP score mean ± SD, DAS28-CRP response group No",[8],−0.50 ± 0.70 log2 (fold/baseline)
same,"M-DP score mean ± SD, All treated",[9],−0.79 ± 0.76 log2 (fold/baseline)
same,"M-DP score mean difference ± SD, Good vs. No",[9],−0.34 ± 0.81 (0.0416) log2 (fold/baseline)
same,"M-DP score mean ± SD, DAS28-CRP response group Good",[9],−1.13 ± 0.80 log2 (fold/baseline)
same,"M-DP score mean ± SD, DAS28-CRP response group Moderate",[9],−1.05 ± 0.93 log2 (fold/baseline)
same,"M-DP score mean ± SD, DAS28-CRP response group No",[9],−0.79 ± 0.83 log2 (fold/baseline)
same,"M-DP score mean ± SD, All treated",[10],−0.85 ± 0.81 log2 (fold/baseline)
same,"M-DP score mean difference ± SD, Good vs. No",[10],−0.43 ± 0.79 (0.0167) log2 (fold/baseline)
same,"M-DP score mean ± SD, DAS28-CRP response group Good",[10],−0.98 ± 0.81 log2 (fold/baseline)
same,"M-DP score mean ± SD, DAS28-CRP response group Moderate",[10],−0.88 ± 0.81 log2 (fold/baseline)
same,"M-DP score mean ± SD, DAS28-CRP response group No",[10],−0.55 ± 0.76 log2 (fold/baseline)
same,"M-DP score mean ± SD, All treated",[11],−1.03 ± 0.83 log2 (fold/baseline)
same,"M-DP score mean difference ± SD, Good vs. No",[11],−0.44 ± 0.78 (0.0067) log2 (fold/baseline)
same,"M-DP score mean ± SD, DAS28-CRP response group Good",[11],−1.18 ± 0.80 log2 (fold/baseline)
same,"M-DP score mean ± SD, DAS28-CRP response group Moderate",[11],−1.19 ± 0.90 log2 (fold/baseline)
same,"M-DP score mean ± SD, DAS28-CRP response group No",[11],−0.74 ± 0.75 log2 (fold/baseline)
